Measured values taken from the supplement of paper PMC11908140.

B1: library; numbered along this chain (parent)
chain: MRKPRAAVGSGHRKQAASQEGRQKHAKNNSQAKPSACDGLARQPEEVVLQASVSSYHLFRDVAEVTAFRGSLLSWYDQEKRDLPWRRRAEDEMDLDRRAYAVWVSEVMLQQTQVATVINYYTGWMQKWPTLQDLASASLEEVNQLWAGLGYYSRGRRLQEGARKVVEELGGHMPRTAETLQQLLPGVGRYTAGAIASIAFGQATGVVDGNVARVLCRVRAIGADPSSTLVSQQLWGLAQQLVDPARPGDFNQAAMELGATVCTPQRPLCSQCPVESLCRARQRVEQEQLLASGSLSGSPDVEECAPNTGQCHLCLPPSEPWDQTLGVVNFPRKASRKPPREESSATCVLEQPGALGAQILLVQRPNSGLLAGLWEFPSVTWEPSEQLQRKALLQELQRWAGPLPATHLRHLGEVVHTFSHIKLTYQVYGLALEGQTPVTTVPPGARWLTQEEFHTAAVSTAMKKVFRVYQGQQPGTCMGSKRSQVSSPCSRKKPRMGQQVLDNFFRSHISTDAHSLNSAAQ

Variants of: B1
Experiment: 8OG:A repair function score (normalized; synonymous = 0, nonsense = -1) (normalized log-likelihood score); higher = more repair activity (WT-like)
Conditions: with 8OG:A DNA repair reporter (GFP) in HEK-293 MUTYH KO cells
Summary of the method: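 With 10 pg/ml doxycycline, MUTYH knockout HEK-293 cells carrying lentiviral MUTYH cDNA NNN codon-scan libraries were co-transfected with mCherry and an 8OG:A GFP repair reporter. Viable mCherry+ cells were sorted into GFP+ (repair) and GFP− bins at 72 h, three replicates per tile, and tile amplicons were sequenced. Per-tile Rosace fitness scores were then normalized into a repair function score anchored on synonymous and nonsense distributions. Medians were fixed at 0 for synonymous and -1 for nonsense, excluding variants under 300 counts per million at the start.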

8OG:A repair function score of substitutions, site by site:
T439: L -0.0119 | P 0.126 | C -0.19 | I 0.0704 | M 0.106 | N -0.0163 | R -0.0617 | F -0.0571 | W 0.0448 | Q -0.173 | H 0.301 | G 0.107 | A 0.0597 | S -0.0274 | K 0.00137 | Y -0.104 | E 0.0225 | D -0.225 | V 0.0472
R446: C -0.342 | A -0.143 | H -0.177 | E -0.312 | F -0.449 | M -0.121 | K -0.277 | I -0.193 | D -0.442 | G -0.67 | L -0.202
A445: N -0.506 | I -0.318 | H -0.71 | Y -0.693 | P -0.65 | Q -0.575 | S -0.0458 | F -0.672 | D -1.09 | L -0.363 | C 0.0578 | K -0.464 | M -0.292 | E -0.567 | W -0.606 | R -0.53 | G -0.0675 | V -0.109 | T -0.288
L430: Q -0.561 | A -0.143 | V -0.165 | I -0.29 | W 0.0653 | K -0.617 | M -0.448 | E -0.36 | D -0.393 | R -0.655 | H -0.604 | P -0.888 | T -0.477 | S -0.127 | N -0.276 | Y -0.0889 | G -0.304 | C -0.0232 | F 0.0205
T440: D -0.0869 | K 0.0852 | A -0.131 | F 0.0139 | R -0.0347 | P -0.041 | W -0.105 | H -0.111 | G -0.145 | Q -0.0653 | I -0.117 | V -0.0931 | S 0.0249 | L -0.194 | N -0.313 | M -0.109 | Y 0.157 | C 0.0206 | E 0.0718
T436: D 0.113 | Q 0.0306 | N -0.0228 | G -0.0926 | S -0.173 | P -0.0919 | L 0.548 | Y 0.0674 | F -0.0267 | K -0.201 | M 0.186 | C -0.201 | I -0.0834 | A 0.195 | R -0.124 | E -0.16 | V -0.079 | H 0.323 | W -0.00145
G434: L -0.158 | I -0.0439 | D -0.275 | A 0.188 | T -0.0414 | M 0.0898 | N -0.392 | Q -0.0366 | E 0.0175 | F 0.125 | R -0.0648 | K 0.22 | P -0.0275 | S -0.0544 | W 0.0509 | C 0.163 | Y 0.0378 | V -0.0502 | H -0.0472
V438: Y -0.0793 | K -0.0297 | N 0.103 | L -0.0153 | P 0.0371 | T -0.0976 | W -0.131 | G -0.176 | M -0.252 | D 0.0779 | I -0.407 | A 0.149 | E 0.281 | Q 0.187 | S -0.176 | R 0.11 | C 0.134 | H -0.17 | F -0.193
G444: Y -0.204 | E -0.0932 | P -0.189 | Q -0.113 | S -0.291 | T -0.00488 | F -0.32 | H -0.155 | R -0.119 | N -0.198 | A -0.284 | I -0.373 | L -0.255 | M -0.298 | W -0.444 | V -0.448 | K -0.0942 | D -0.275 | C -0.242
P437: H 0.0786 | E 0.0852 | S -0.0348 | Y -0.351 | W 0.078 | R -0.174 | G 0.136 | K -0.15 | I -0.277 | C -0.244 | N -0.284 | T -0.142 | Q -0.0348 | V -0.0519 | F -0.282 | D -0.128 | L -0.197 | A -0.00344 | M -0.528
G429: M -0.288 | H -0.299 | T -0.219 | R -0.355 | Y -0.0542 | W -0.114 | S -0.131 | V -0.00866 | Q -0.283 | F 0.209 | P -1.12 | D -0.382 | C 0.227 | K -0.404 | N -0.133 | E -0.296 | I -0.0856 | L -0.125 | A 0.031
E433: K -0.0112 | A 0.0651 | Y -0.0863 | L -0.0355 | H -0.0353 | M -0.0329 | D -0.241 | G 0.00508 | W -0.393 | I 0.00922 | C -0.179 | R 0.0685 | P 0.219 | F -0.199 | T -0.00904 | N -0.0644 | Q 0.165 | V -0.164 | S 0.0139
Q435: D 0.0234 | E -0.132 | C 0.293 | M 0.051 | G -0.0569 | P 0.288 | W -0.125 | T 0.028 | F -0.052 | N -0.138 | A -0.0344 | S 0.261 | R 0.0382 | I 0.00734 | K 0.0819 | Y 0.0772 | H 0.148 | L 0.0233 | V -0.157
P443: N 0.222 | I 0.0878 | Q 0.0864 | S 0.0247 | Y -0.0335 | D -0.00467 | F 0.179 | K -0.324 | R -0.143 | E -0.318 | G -0.0689 | H 0.055 | C -9.64e-05 | T -0.199 | W -0.309 | V 0.172 | M 0.0448 | L 0.058 | A 0.0799
P442: C -0.141 | Y -0.28 | S 0.00212 | R -0.0654 | E -0.177 | W -0.205 | K -0.261 | N -0.426 | H 0.0816 | M 0.0715 | D -0.0873 | F -0.0534 | Q 0.213 | G -0.171 | I -0.0279 | L -0.12 | V -0.0512 | A -0.19 | T -0.0315
V441: N -0.259 | S -0.0467 | W -0.278 | M 0.176 | L -0.0169 | E -0.161 | Y -0.0452 | R -0.293 | D -0.144 | F -0.0997 | T -0.0387 | Q -0.259 | A -0.0435 | K -0.215 | P -0.0374 | H -0.533 | I -0.0341 | C -0.261 | G -0.221
A431: W -0.13 | L 0.0682 | R -0.0201 | H 0.358 | M -0.23 | N 0.00246 | D -0.204 | T -0.0229 | C -0.0248 | K 0.126 | P -0.0943 | I 0.0332 | G -0.211 | E 0.346 | Q -0.242 | Y -0.0701 | V -0.0559 | F -0.237 | S 0.129
L432: D -0.57 | T -0.151 | Q -0.604 | Y -0.499 | K -0.608 | N -0.504 | R -0.334 | H -0.223 | V -0.118 | S -0.284 | M -0.284 | I -0.208 | E -0.542 | C 0.0294 | A -0.541 | F -0.116 | P -0.514 | G -0.302 | W 0.0604
